Experimental data published in patent US20240360227A1.

Experiments:
[1] = biological target: Recombinant human his-tagged IGF R extracellular domain protein (human) (UniProt P08069); experiment: SPR, Ab captured via anti-huIgG Fc, pH 7.4
[2] = biological target: Recombinant human his-tagged IGF R extracellular domain protein (human) (UniProt P08069); experiment: SPR, Ab captured via anti-huIgG Fc, dissociation at pH 6

Kd [1]	koff [1]	kon [1]	Kd [2]	koff [2]	kon [2]	Binder
0.697 nM	6.19e-05 s⁻¹	88700 M⁻¹ s⁻¹	1.11 nM	0.000153 s⁻¹	138000 M⁻¹ s⁻¹	VRDN-02014 (antibody, V domains shown) VH: QVQLQESGPGLVKPSETLSLTCTVSGYSITGGYLWNWIRQPPGKGLEWIGYIHYDGTNNYKPSLKDRVTISRDTSKNQFSLKLSSVTAADTAVYYCARYGRVFFDYWGQGTLVTVSS VL: DIVMTQSPLSLPVTPGEPASISCRSSQSIVHSNGNTYLQWYLQKPGQSPQLLIYKVSNRLYGVPDRFSGSGSGTDFTLKISRVEAEDVGVYYCFQGSHVPWTFGQGTKVEIK
0.301 nM	3.98e-05 s⁻¹	132000 M⁻¹ s⁻¹	0.25 nM	5.81e-05 s⁻¹	232000 M⁻¹ s⁻¹	VRDN-02074 (antibody, V domains shown) VH: QVQLQESGPGLVKPSETLSLTCTVSGYSITGGYLWNWIRQPPGKGLEWIGYISYHGTNNYKPSLKDRVTISRDTSKNQFSLKLSSVTAADTAVYYCARHGRVFFDYWGQGTLVTVSS VL: DIVMTQSPLSLPVTPGEPASISCRSHQSIVHSNGNTYLQWYLQKPGQSPQLLIYKVSNRLYGVPDRFSGSGSGTDFTLKISRVEAEDVGVYYCFHGSHVPWTFGQGTKVEIK
0.21 nM	2.46e-05 s⁻¹	117000 M⁻¹ s⁻¹	0.178 nM	6.76e-05 s⁻¹	381000 M⁻¹ s⁻¹	VRDN-02076 (antibody, V domains shown) VH: QVQLQESGPGLVKPSETLSLTCTVSGYSITGGYLWNWIRQPPGKGLEWIGYISYHGTNNYKPSLKDRVTISRDTSKNQFSLKLSSVTAADTAVYYCARHGRVFFDYWGQGTLVTVSS VL: DIVMTQSPLSLPVTPGEPASISCRSHQSIVHSNGNTYLQWYLQKPGQSPQLLIYKVSNRLYGVPDRFSGSGSGTDFTLKISRVEAEDVGVYYCFQGSHVPHTFGQGTKVEIK
0.674 nM	5.45e-05 s⁻¹	80800 M⁻¹ s⁻¹	1.17 nM	0.000109 s⁻¹	93200 M⁻¹ s⁻¹	VRDN-02013 (antibody, V domains shown) VH: QVQLQESGPGLVKPSETLSLTCTVSGYSITGGYLWNWIRQPPGKGLEWIGYHSYDGTNNYKPSLKDRVTISRDTSKNQFSLKLSSVTAADTAVYYCARYGRVFFDYWGQGTLVTVSS VL: DIVMTQSPLSLPVTPGEPASISCRSSQSIVHSNGNTYLQWYLQKPGQSPQLLIYKVSNRLYGVPDRFSGSGSGTDFTLKISRVEAEDVGVYYCFQGSHVPWTFGQGTKVEIK
0.589 nM	5.41e-05 s⁻¹	91800 M⁻¹ s⁻¹	1.01 nM	0.000103 s⁻¹	102000 M⁻¹ s⁻¹	VRDN-02012 (antibody, V domains shown) VH: QVQLQESGPGLVKPSETLSLTCTVSGYSITGGYLWNWIRQPPGKGLEWIGHISYDGTNNYKPSLKDRVTISRDTSKNQFSLKLSSVTAADTAVYYCARYGRVFFDYWGQGTLVTVSS VL: DIVMTQSPLSLPVTPGEPASISCRSSQSIVHSNGNTYLQWYLQKPGQSPQLLIYKVSNRLYGVPDRFSGSGSGTDFTLKISRVEAEDVGVYYCFQGSHVPWTFGQGTKVEIK
0.261 nM	3.13e-05 s⁻¹	120000 M⁻¹ s⁻¹	0.267 nM	4.77e-05 s⁻¹	179000 M⁻¹ s⁻¹	VRDN-02073 (antibody, V domains shown) VH: QVQLQESGPGLVKPSETLSLTCTVSGYSITGGYLWNWIRQPPGKGLEWIGYIHYDGTNNYKPSLKDRVTISRDTSKNQFSLKLSSVTAADTAVYYCARHGRVFFDYWGQGTLVTVSS VL: DIVMTQSPLSLPVTPGEPASISCRSHQSIVHSNGNTYLQWYLQKPGQSPQLLIYKVSNRLYGVPDRFSGSGSGTDFTLKISRVEAEDVGVYYCFQGSHVPHTFGQGTKVEIK
0.51 nM	4.57e-05 s⁻¹	89500 M⁻¹ s⁻¹	0.961 nM	8.79e-05 s⁻¹	91400 M⁻¹ s⁻¹	VRDN-02015 (antibody, V domains shown) VH: QVQLQESGPGLVKPSETLSLTCTVSGYSITGGYLWNWIRQPPGKGLEWIGYISHDGTNNYKPSLKDRVTISRDTSKNQFSLKLSSVTAADTAVYYCARYGRVFFDYWGQGTLVTVSS VL: DIVMTQSPLSLPVTPGEPASISCRSSQSIVHSNGNTYLQWYLQKPGQSPQLLIYKVSNRLYGVPDRFSGSGSGTDFTLKISRVEAEDVGVYYCFQGSHVPWTFGQGTKVEIK
0.237 nM	2.76e-05 s⁻¹	116000 M⁻¹ s⁻¹	0.188 nM	5.52e-05 s⁻¹	294000 M⁻¹ s⁻¹	VRDN-02075 (antibody, V domains shown) VH: QVQLQESGPGLVKPSETLSLTCTVSGYSITGGYLWNWIRQPPGKGLEWIGYISYHGTNNYKPSLKDRVTISRDTSKNQFSLKLSSVTAADTAVYYCARHGRVFFDYWGQGTLVTVSS VL: DIVMTQSPLSLPVTPGEPASISCRSHQSIVHSNGNTYLQWYLQKPGQSPQLLIYKVSNRLYGVPDRFSGSGSGTDFTLKISRVEAEDVGVYYCFQGSHVHWTFGQGTKVEIK

Continued, binder first:

Binder	Kd [1]	koff [1]	kon [1]	Kd [2]	koff [2]	kon [2]
VRDN-02007 (antibody, V domains shown) VH: QVQLQESGPGLVKPSETLSLTCTVSGYSITGHYLWNWIRQPPGKGLEWIGYISYDGTNNYKPSLKDRVTISRDTSKNQFSLKLSSVTAADTAVYYCARYGRVFFDYWGQGTLVTVSS VL: DIVMTQSPLSLPVTPGEPASISCRSSQSIVHSNGNTYLQWYLQKPGQSPQLLIYKVSNRLYGVPDRFSGSGSGTDFTLKISRVEAEDVGVYYCFQGSHVPWTFGQGTKVEIK	12.8 nM	0.000743 s⁻¹	58000 M⁻¹ s⁻¹	10.2 nM	0.00188 s⁻¹	184000 M⁻¹ s⁻¹
VRDN-02008 (antibody, V domains shown) VH: QVQLQESGPGLVKPSETLSLTCTVSGYSITGGHLWNWIRQPPGKGLEWIGYISYDGTNNYKPSLKDRVTISRDTSKNQFSLKLSSVTAADTAVYYCARYGRVFFDYWGQGTLVTVSS VL: DIVMTQSPLSLPVTPGEPASISCRSSQSIVHSNGNTYLQWYLQKPGQSPQLLIYKVSNRLYGVPDRFSGSGSGTDFTLKISRVEAEDVGVYYCFQGSHVPWTFGQGTKVEIK	16.6 nM	0.0206 s⁻¹	1.24e+06 M⁻¹ s⁻¹	13.1 nM	0.00143 s⁻¹	109000 M⁻¹ s⁻¹
VRDN-02011 (antibody, V domains shown) VH: QVQLQESGPGLVKPSETLSLTCTVSGYSITGGYLWHWIRQPPGKGLEWIGYISYDGTNNYKPSLKDRVTISRDTSKNQFSLKLSSVTAADTAVYYCARYGRVFFDYWGQGTLVTVSS VL: DIVMTQSPLSLPVTPGEPASISCRSSQSIVHSNGNTYLQWYLQKPGQSPQLLIYKVSNRLYGVPDRFSGSGSGTDFTLKISRVEAEDVGVYYCFQGSHVPWTFGQGTKVEIK	0.432 nM	4.55e-05 s⁻¹	105000 M⁻¹ s⁻¹	0.836 nM	7.81e-05 s⁻¹	93400 M⁻¹ s⁻¹
VRDN-02009 (antibody, V domains shown) VH: QVQLQESGPGLVKPSETLSLTCTVSGYSITGGYHWNWIRQPPGKGLEWIGYISYDGTNNYKPSLKDRVTISRDTSKNQFSLKLSSVTAADTAVYYCARYGRVFFDYWGQGTLVTVSS VL: DIVMTQSPLSLPVTPGEPASISCRSSQSIVHSNGNTYLQWYLQKPGQSPQLLIYKVSNRLYGVPDRFSGSGSGTDFTLKISRVEAEDVGVYYCFQGSHVPWTFGQGTKVEIK	0.442 nM	3.98e-05 s⁻¹	90000 M⁻¹ s⁻¹	0.967 nM	8.4e-05 s⁻¹	86900 M⁻¹ s⁻¹
VRDN-02010 (antibody, V domains shown) VH: QVQLQESGPGLVKPSETLSLTCTVSGYSITGGYLHNWIRQPPGKGLEWIGYISYDGTNNYKPSLKDRVTISRDTSKNQFSLKLSSVTAADTAVYYCARYGRVFFDYWGQGTLVTVSS VL: DIVMTQSPLSLPVTPGEPASISCRSSQSIVHSNGNTYLQWYLQKPGQSPQLLIYKVSNRLYGVPDRFSGSGSGTDFTLKISRVEAEDVGVYYCFQGSHVPWTFGQGTKVEIK	6.95 nM	0.00311 s⁻¹	447000 M⁻¹ s⁻¹	7.61 nM	0.00074 s⁻¹	97200 M⁻¹ s⁻¹
